Test results: publication PMC11405125 (Briefings in Bioinformatics, 2024)
Changes are numbered by the printed parent chain. Numbers in names are those of the source.

Biological target: HIV-1 Bal gp140 (Human immunodeficiency virus 1, isolate …, UniProt Q2MKA8, strain)
Assay: ELISA

B1: HuJ3 E44R (VHH)
VHH: EVQLVESGGGLVQPGGSLRLSCAASGSIFNQYAMAWFRQAPGKRREFVAGMGAVPHYGEFVKGRFTISRDNSKNTVYLQMNSLRAEDTAVYYCARSKSTYISYNSNGYDYWGQGTLVTVS
With B1 the EC50 was 1.7 nM.

B2: HuJ3 V54E (VHH)
VHH: B1 VHH with R44E, V54E
Binder B2 has an EC50 of 2.31 nM.

B3: HuJ3 S102R (VHH)
VHH: B1 VHH with R44E, S102R
In the case of B3, the EC50 is reported as 10.4 nM.
